Test system: HIV-1JRFL
Test: HIV-1JRFL infection of monocyte-derived macrophages, p24 ELISA
Format: cell-based
Conditions: peptide 1 hr before virus, p24 after 72 hr; FIG. 3
Procedure: Monocyte-derived macrophages were treated with the designated concentrations of the indicated peptide for a period of 1 hr prior to addition of HIV-1JRFL. After 2 hr, cells were washed, and viral replication was determined after 72 hr by p24 analysis. Results are representative of 4 independent experiments.
PBMCs were obtained from whole blood of normal donors and isolated by Ficoll-Paque Plus (Pharmacia Biotech, Piscataway, N.J.) density gradient centrifugation, and plated at a cell density of 2×10^6 cells/ml. Monocyte-derived macrophages (MDM) were generated from adherent human peripheral blood mononuclear cells by culture for 7 days with M-CSF (100 ng/ml). […] After 2 hr, cells were washed, and cultured for additional 48-72 hr, followed by analysis of HIV replication as determined by quantification of accumulated p24 in the supernatant. The production of p24 was determined by conventional sandwich ELISA, using ELISA plates pre-coated with capture anti-p24 antibodies provided by the AIDS Vaccine Program (SAIC Frederick, NCI-FCRDC, Frederick, Md.). The captured p24 antigen was detected using rabbit anti-HIV-1 anti-p24 antibody, and a secondary goat anti-rabbit IgG (peroxidase-labeled) antibody. The captured p24 protein was detected using a 3,3′,5,5′-tetramethylbenzidine and hydrogen peroxide detection system (KPL Laboratories, Gaithersburg, Md.). […]

B1: macrophage inflammatory protein-1β (protein)
chain: APMGSDPPTACCFSYTARKLPRNFVVDYYETSSLCSQPAVVFQTKRSKQVCADPSESWVQEYVYDLELN
- inhibition of HIV-1JRFL infection of monocyte-derived macrophages (p24): comparable inhibitory activities

Source: patent publication US20060116325A1, “Methods and compositions for inhibiting hiv-coreceptor interactions” (priority 2001, published 2006)
